From the Human Domainome abundance scans (Beltran et al. 2025) come the findings set out here.

± gives the uncertainty stated by the source.

First the molecules themselves.
B1: Unconventional myosin-Ie, residues 1051 to 1108; numbered along this chain, Q12965 (parent)
chain: PQVPQCKALYAYDAQDTDELSFNANDIIDIIKEDPSGWWTGRLRGKQGLFPNNYVTKI

Variants of B1 are the subject of the series. The series is described as follows: abundance fitness (aPCA) (normalised: wild type 0, dead -1); higher = more abundant; growth selection in yeast, the domain comes from the species named. Particulars: Homo sapiens.
For PQVPQCKALYAYDEQDTDELSFNANDIIDIIKEDPSGWWTGRLRGKQGLFPNNYVTKI [A14E], the abundance fitness is -0.695 ± 0.15. The value for PQVPQCKALYAYDCQDTDELSFNANDIIDIIKEDPSGWWTGRLRGKQGLFPNNYVTKI [A14C] was -0.284 ± 0.059.

In the case of PQVPQCKALYAYDDQDTDELSFNANDIIDIIKEDPSGWWTGRLRGKQGLFPNNYVTKI [A14D], the abundance fitness is -0.797 ± 0.19. Turning to PQVPQCKALYAYDTQDTDELSFNANDIIDIIKEDPSGWWTGRLRGKQGLFPNNYVTKI [A14T], the abundance fitness is -0.374 ± 0.11. Take PQVPQCKALYAYDVQDTDELSFNANDIIDIIKEDPSGWWTGRLRGKQGLFPNNYVTKI [A14V]: the abundance fitness is -0.871 ± 0.1. Regarding PQVPQCKALYAYDAQDRDELSFNANDIIDIIKEDPSGWWTGRLRGKQGLFPNNYVTKI [T17R], the abundance fitness is -0.111 ± 0.049. Take PQVPQCKALYAYDAQDGDELSFNANDIIDIIKEDPSGWWTGRLRGKQGLFPNNYVTKI [T17G]: the abundance fitness was -0.057 ± 0.044. The value for PQVPQCKALYAYDAQDMDELSFNANDIIDIIKEDPSGWWTGRLRGKQGLFPNNYVTKI [T17M] was -0.043 ± 0.043. For PQVPQCKALYAYDAQDFDELSFNANDIIDIIKEDPSGWWTGRLRGKQGLFPNNYVTKI [T17F], the abundance fitness was -0.287 ± 0.097. To PQVPQCKALYAYDAQDWDELSFNANDIIDIIKEDPSGWWTGRLRGKQGLFPNNYVTKI [T17W] belongs -0.091 ± 0.035. To PQVPQCKALYAYDAQDHDELSFNANDIIDIIKEDPSGWWTGRLRGKQGLFPNNYVTKI [T17H] belongs -0.137 ± 0.19; to PQVPQCKALYAYDAQDEDELSFNANDIIDIIKEDPSGWWTGRLRGKQGLFPNNYVTKI [T17E], -0.272 ± 0.09.

Regarding PQVPQCKALYAYDAQDADELSFNANDIIDIIKEDPSGWWTGRLRGKQGLFPNNYVTKI [T17A], the abundance fitness stood at 0.026 ± 0.048.

As to PQVPQCKALYAYDAQDPDELSFNANDIIDIIKEDPSGWWTGRLRGKQGLFPNNYVTKI [T17P], the abundance fitness was -0.273 ± 0.092.

Consider PQVPQCKALYAYDAQDSDELSFNANDIIDIIKEDPSGWWTGRLRGKQGLFPNNYVTKI [T17S], for which the abundance fitness was -0.077 ± 0.05. As to PQVPQCKALYAYDAQDDDELSFNANDIIDIIKEDPSGWWTGRLRGKQGLFPNNYVTKI [T17D], the abundance fitness was -0.007 ± 0.078. The value for PQVPQCKALYAYDAQDCDELSFNANDIIDIIKEDPSGWWTGRLRGKQGLFPNNYVTKI [T17C] was -0.128 ± 0.063; that for PQVPQCKALYAYDAQDYDELSFNANDIIDIIKEDPSGWWTGRLRGKQGLFPNNYVTKI [T17Y] was -0.238 ± 0.088; that for PQVPQCKALYAYDAQDQDELSFNANDIIDIIKEDPSGWWTGRLRGKQGLFPNNYVTKI [T17Q] was -0.078 ± 0.055.

PQVPQCKALYAYDAQDNDELSFNANDIIDIIKEDPSGWWTGRLRGKQGLFPNNYVTKI [T17N]: the abundance fitness was -0.423 ± 0.14. Regarding PQVPQCKALYAYDAQDLDELSFNANDIIDIIKEDPSGWWTGRLRGKQGLFPNNYVTKI [T17L], the abundance fitness is -0.239 ± 0.06. To PQVPQCKALYAYDAQDKDELSFNANDIIDIIKEDPSGWWTGRLRGKQGLFPNNYVTKI [T17K] belongs -0.18 ± 0.082. PQVPQCKALYAYWAQDTDELSFNANDIIDIIKEDPSGWWTGRLRGKQGLFPNNYVTKI [D13W]: the abundance fitness is -0.368 ± 0.056. For the variant PQVPQCKALYAYVAQDTDELSFNANDIIDIIKEDPSGWWTGRLRGKQGLFPNNYVTKI [D13V], the abundance fitness is -0.161 ± 0.056. Take PQVPQCKALYAYRAQDTDELSFNANDIIDIIKEDPSGWWTGRLRGKQGLFPNNYVTKI [D13R]: the abundance fitness was -0.165 ± 0.04. To PQVPQCKALYAYYAQDTDELSFNANDIIDIIKEDPSGWWTGRLRGKQGLFPNNYVTKI [D13Y] belongs -0.209 ± 0.039; to PQVPQCKALYAYSAQDTDELSFNANDIIDIIKEDPSGWWTGRLRGKQGLFPNNYVTKI [D13S], -0.189 ± 0.055; to PQVPQCKALYAYQAQDTDELSFNANDIIDIIKEDPSGWWTGRLRGKQGLFPNNYVTKI [D13Q], -0.018 ± 0.067. On to PQVPQCKALYAYTAQDTDELSFNANDIIDIIKEDPSGWWTGRLRGKQGLFPNNYVTKI [D13T], for which the abundance fitness is 0.012 ± 0.065. To PQVPQCKALYAYDAQVTDELSFNANDIIDIIKEDPSGWWTGRLRGKQGLFPNNYVTKI [D16V] belongs -0.169 ± 0.056. The value for PQVPQCKALYAYDAQMTDELSFNANDIIDIIKEDPSGWWTGRLRGKQGLFPNNYVTKI [D16M] was -0.098 ± 0.054; that for PQVPQCKALYAYDAQPTDELSFNANDIIDIIKEDPSGWWTGRLRGKQGLFPNNYVTKI [D16P] was -0.798 ± 0.076. Consider PQVPQCKALYAYDAQQTDELSFNANDIIDIIKEDPSGWWTGRLRGKQGLFPNNYVTKI [D16Q], for which the abundance fitness was -0.22 ± 0.07. For the variant PQVPQCKALYAYDAQFTDELSFNANDIIDIIKEDPSGWWTGRLRGKQGLFPNNYVTKI [D16F], the abundance fitness was -0.19 ± 0.057. Turning to PQVPQCKALYAYDAQITDELSFNANDIIDIIKEDPSGWWTGRLRGKQGLFPNNYVTKI [D16I], the abundance fitness was -0.557 ± 0.16. PQVPQCKALYAYDAQYTDELSFNANDIIDIIKEDPSGWWTGRLRGKQGLFPNNYVTKI [D16Y]: the abundance fitness is -0.093 ± 0.088.

On to PQVPQCKALYAYDAQGTDELSFNANDIIDIIKEDPSGWWTGRLRGKQGLFPNNYVTKI [D16G], for which the abundance fitness was -0.156 ± 0.047. The value for PQVPQCKALYAYDAQHTDELSFNANDIIDIIKEDPSGWWTGRLRGKQGLFPNNYVTKI [D16H] was -0.206 ± 0.12; that for PQVPQCKALYAYDAQTTDELSFNANDIIDIIKEDPSGWWTGRLRGKQGLFPNNYVTKI [D16T] was -0.024 ± 0.058; that for PQVPQCKALYAYDAQETDELSFNANDIIDIIKEDPSGWWTGRLRGKQGLFPNNYVTKI [D16E] was -0.097 ± 0.053. The value for PQVPQCKALYAYDAQKTDELSFNANDIIDIIKEDPSGWWTGRLRGKQGLFPNNYVTKI [D16K] was -0.069 ± 0.07; that for PQVPQCKALYAYDAQWTDELSFNANDIIDIIKEDPSGWWTGRLRGKQGLFPNNYVTKI [D16W] was -0.231 ± 0.049. To PQVPQCKALYAYDAQNTDELSFNANDIIDIIKEDPSGWWTGRLRGKQGLFPNNYVTKI [D16N] belongs -0.052 ± 0.052. Turning to PQVPQCKALYAYDAQCTDELSFNANDIIDIIKEDPSGWWTGRLRGKQGLFPNNYVTKI [D16C], the abundance fitness is -0.057 ± 0.055. Consider PQVPQCKALYAYDAQATDELSFNANDIIDIIKEDPSGWWTGRLRGKQGLFPNNYVTKI [D16A], for which the abundance fitness is -0.055 ± 0.058. To PQVPQCKALYAYDAQLTDELSFNANDIIDIIKEDPSGWWTGRLRGKQGLFPNNYVTKI [D16L] belongs -0.271 ± 0.046.
